In this test the target is T1, human FcγRIIa-H (the high-affinity H131 variant) (human, UniProt P12318 34-317).
T1 sequence (looked up): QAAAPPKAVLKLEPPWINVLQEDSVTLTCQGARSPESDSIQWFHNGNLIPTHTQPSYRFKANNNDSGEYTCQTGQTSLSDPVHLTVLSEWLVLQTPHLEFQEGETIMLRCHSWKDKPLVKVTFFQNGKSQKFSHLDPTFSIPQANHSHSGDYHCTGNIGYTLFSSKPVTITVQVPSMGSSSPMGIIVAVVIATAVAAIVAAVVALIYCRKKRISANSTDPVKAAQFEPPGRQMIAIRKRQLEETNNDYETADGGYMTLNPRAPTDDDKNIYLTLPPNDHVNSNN
As to the kind of experiment: cell-based or functional assay.

B1: AIP-169752 (antibody, V domains shown)
VH: EVQLVESGGALVKPGGSLRLSCAASGFTFSKAWMSWVRQAPGKGLEWVGRIKSVTDGETTDYAAPVKGRFTISRDDSKSTLYLQMNSLKTEDTAVYYCTSSFCCRGGGSCPSHDTSYCGGQYKSYYYMDVWGKGTTVTVSS
VL: QSVLTQPPSASGTPGQRVTISCSGSSSNIGSSSVSWYQQLPGTAPKLLIYKNNQRPSGVPDRFSGSKSGTSASLAISGLRSEDEADYYCSTWDDSLSVRVFGGGTKLTVL
Turning to B1, the “Avg ΔActivity Rank” value was 2.

B2: AIP-114111 (antibody, V domains shown)
VH: EVQLVESGGALVKPGGSLRLSCAASGFTFSKAWMSWVRQAPGKGLEWVGRIKSVTDGETTDYAAPVKGRFTISRDDSKSTLYLQMNSLKTEDTAVYYCTSSFCCRGGSCPSHDTSYCGGQYKSSYYYMDVWGKGTTVTVSS
VL: QSVLTQPPSASGTPGQRVTISCSGSSSNIGSSSVSWYQQLPGTAPKLLIYKNNQRPSGVPDRFSGSKSGTSASLAISGLRSEDEADYYCSTWDDSLSVRVFGGGTKLTVL
The term EC50 denotes the concentration that produces a half-maximal response. Take B2: the “Avg ΔActivity Rank” value turned out to be 2, the “EC50” value turned out to be 258 nM and the “Fold ΔActivity” value stood at 0.55.

B3: AIP-163723 (antibody, V domains shown)
VH: EVQLVESGGALVKPGGSLRLSCAASGFTFSKAWMSWVRQAPGKGLEWVGRIKSVTDGETTDYAAPVKGRFTISRDDSKSTLYLQMNSLKTEDTAVYYCTSSFCCRGGSCPSHDTSYCGGQKSYYYMDVWGKGTTVTVSS
VL: QSVLTQPPSASGTPGQRVTISCSGSSSNIGSSSVSWYQQLPGTAPKLLIYKNNQRPSGVPDRFSGSKSGTSASLAISGLRSEDEADYYCSTWDDSLSVRVFGGGTKLTVL
For B3, the “Avg ΔActivity Rank” value was 2.

B4: AIP-107388 (antibody, V domains shown)
VH: EVQLVESGGALVKPGGSLRLSCAASGFTFSKAWMSWVRQAPGKGLEWVGRIKSVTDGETTDYAAPVKGRFTISRDDSKSTLYLQMNSLKTEDTAVYYCTSSFCCRGGSCPSHDTSYCGGGQYKSYYYMDVWGKGTTVTVSS
VL: QSVLTQPPSASGTPGQRVTISCSGSSSNIGSSSVSWYQQLPGTAPKLLIYKNNQRPSGVPDRFSGSKSGTSASLAISGLRSEDEADYYCSTWDDSLSVRVFGGGTKLTVL
Turning to B4, the “Avg ΔActivity Rank” value was found to be 2.

B5: AIP-191692 (antibody, V domains shown)
VH: EVQLVESGGALVKPGGSLRLSCAASGFTFSKAWMSWVRQAPGKGLEWVGRIKSVTDGETTDYAAPVKGRFTISRDDSKSTLYLQMNSLKTEDTAVYYCTSSFCCRGGSCPSHDTSYCGGGSGYKSYYYMDVWGKGTTVTVSS
VL: QSVLTQPPSASGTPGQRVTISCSGSSSNIGSSSVSWYQQLPGTAPKLLIYKNNQRPSGVPDRFSGSKSGTSASLAISGLRSEDEADYYCSTWDDSLSVRVFGGGTKLTVL
Consider B5, for which the “Avg ΔActivity Rank” value was determined as 2.

B6: AIP-125646 (antibody, V domains shown)
VH: EVQLVESGGALVKPGGSLRLSCAASGFTFSKAWMSWVRQAPGKGLEWVGRIKSVTDGETTDYAAPVKGRFTISRDDSKSTLYLQMNSLKTEDTAVYYCTSSFCCRGGSCPSHDTSYCGQYKSYYYMDVWGKGTTVTVSS
VL: QSVLTQPPSASGTPGQRVTISCSGSSSNIGSSSVSWYQQLPGTAPKLLIYKNNQRPSGVPDRFSGSKSGTSASLAISGLRSEDEADYYCSTWDDSLSVRVFGGGTKLTVL
Consider B6, for which the “Avg ΔActivity Rank” value is 2.5, the “EC50” value is 446 nM and the “Fold ΔActivity” value came to 0.75.

B7: AIP-182606 (antibody, V domains shown)
VH: EVQLVESGGALVKPGGSLRLSCAASGFTFSKAWMSWVRQAPGKGLEWVGRIKSVTDGETTDYAAPVKGRFTISRDDSKSTLYLQMNSLKTEDTAVYYCTSSFSCRGGSCPSHDTSYGGQYKSYYYMDVWGKGTTVTVSS
VL: QSVLTQPPSASGTPGQRVTISCSGSSSNIGSSSVSWYQQLPGTAPKLLIYKNNQRPSGVPDRFSGSKSGTSASLAISGLRSEDEADYYCSTWDDSLSVRVFGGGTKLTVL
As to B7, the “Avg ΔActivity Rank” value is 2.

B8: AIP-131762 (antibody, V domains shown)
VH: EVQLVESGGALVKPGGSLRLSCAASGFTFSKAWMSWVRQAPGKGLEWVGRIKSVTDGETTDYAAPVKGRFTISRDDSKSTLYLQMNSLKTEDTAVYYCTSSFCGGPSHDTSYCGGQYKSYYYMDVWGKGTTVTVSS
VL: QSVLTQPPSASGTPGQRVTISCSGSSSNIGSSSVSWYQQLPGTAPKLLIYKNNQRPSGVPDRFSGSKSGTSASLAISGLRSEDEADYYCSTWDDSLSVRVFGGGTKLTVL
For the molecule B8, the “Avg ΔActivity Rank” value was found to be 1.

B9: AIP-167295 (antibody, V domains shown)
VH: EVQLVESGGALVKPGGSLRLSCAASGFTFSKAWMSWVRQAPGKGLEWVGRIKSVTDGETTDYAAPVKGRFTISRDDSKSTLYLQMNSLKTEDTAVYYCTSSFCCRGGSCPSHDTSYCGGQYSYYYMDVWGKGTTVTVSS
VL: QSVLTQPPSASGTPGQRVTISCSGSSSNIGSSSVSWYQQLPGTAPKLLIYKNNQRPSGVPDRFSGSKSGTSASLAISGLRSEDEADYYCSTWDDSLSVRVFGGGTKLTVL
Take B9: the “Avg ΔActivity Rank” value amounted to 2.

B10: AIP-145328 (antibody, V domains shown)
VH: EVQLVESGGALVKPGGSLRLSCAASGFTFSKAWMSWVRQAPGKGLEWVGRIKSVTDGETTDYAAPVKGRFTISRDDSKSTLYLQMNSLKTEDTAVYYCTSSFCCRGGSGGSCPSHDTSYCGGQYKSYYYMDVWGKGTTVTVSS
VL: QSVLTQPPSASGTPGQRVTISCSGSSSNIGSSSVSWYQQLPGTAPKLLIYKNNQRPSGVPDRFSGSKSGTSASLAISGLRSEDEADYYCSTWDDSLSVRVFGGGTKLTVL
With B10, the “Avg ΔActivity Rank” value turned out to be 2.

B11: AIP-185680 (antibody, V domains shown)
VH: EVQLVESGGALVKPGGSLRLSCAASGFTFSKAWMSWVRQAPGKGLEWVGRIKSVTDGETTDYAAPVKGRFTISRDDSKSTLYLQMNSLKTEDTAVYYCTSSFCCRGGGGSCPSHDTSYCGGQYKSYYYMDVWGKGTTVTVSS
VL: QSVLTQPPSASGTPGQRVTISCSGSSSNIGSSSVSWYQQLPGTAPKLLIYKNNQRPSGVPDRFSGSKSGTSASLAISGLRSEDEADYYCSTWDDSLSVRVFGGGTKLTVL
In the case of B11, the “Avg ΔActivity Rank” value was 1.

B12: AIP-194564 (antibody, V domains shown)
VH: EVQLVESGGALVKPGGSLRLSCAASGFTFSKAWMSWVRQAPGKGLEWVGRIKSVTDGETTDYAAPVKGRFTISRDDSKSTLYLQMNSLKTEDTAVYYCTSSFCCRSGGSCPSHDTSYCGGQYKSYYYMDVWGKGTTVTVSS
VL: QSVLTQPPSASGTPGQRVTISCSGSSSNIGSSSVSWYQQLPGTAPKLLIYKNNQRPSGVPDRFSGSKSGTSASLAISGLRSEDEADYYCSTWDDSLSVRVFGGGTKLTVL
On to B12, for which the “Avg ΔActivity Rank” value turned out to be 2; the midpoint of the response, the EC50, lay at 472 nM; the “Fold ΔActivity” value stood at 0.58.

The values above are taken from US20230381130A1 (ATRECA, published 2023).
